Laboratory results: PMC7511963 (NPJ Vaccines, 2020)

Tests used:
[1] = molecular target: HPV16 L1L2 pseudovirus (human papillomavirus type 16) (UniProt P03101)
[2] = molecular target: T1, HPV16 L1L2 pseudovirus (Human papillomavirus type 16, L1 …); assay: cryo-EM structure; conditions: both partners purified
T1 construct: also called HPV16 PsV; HPV16 PsVs; copies: 360 +
T1 chain: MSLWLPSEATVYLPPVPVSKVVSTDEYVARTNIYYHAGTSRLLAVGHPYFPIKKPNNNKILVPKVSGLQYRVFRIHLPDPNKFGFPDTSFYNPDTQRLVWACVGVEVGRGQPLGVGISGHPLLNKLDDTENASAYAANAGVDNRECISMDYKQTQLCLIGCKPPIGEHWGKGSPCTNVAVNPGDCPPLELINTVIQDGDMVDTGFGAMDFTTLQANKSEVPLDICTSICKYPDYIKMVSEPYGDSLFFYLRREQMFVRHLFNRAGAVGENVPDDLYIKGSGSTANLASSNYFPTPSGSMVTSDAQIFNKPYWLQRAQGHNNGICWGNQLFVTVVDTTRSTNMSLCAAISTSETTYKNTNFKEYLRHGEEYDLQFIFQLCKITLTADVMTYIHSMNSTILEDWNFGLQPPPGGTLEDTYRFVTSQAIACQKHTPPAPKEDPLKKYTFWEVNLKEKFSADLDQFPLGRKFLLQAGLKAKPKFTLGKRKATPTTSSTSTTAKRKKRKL

B1: rabbit monoclonal antibody H16.001 (antibody, V domains shown)
VH: QSVKESEGRLVTPGTPLTLTCTASGFTMSRYHMTWVRQAPGKGLEWIGIIYARNSDTYYANWAKGRFTISKTSTTVDLKITSPTIEDTATYFCARVDSDSSGAFDRLDLWGQGTLVTVSS
VL: DPMLTQTAASVEVAVGGTVTIKCQASQSIGGYLSWYQQKPGQRPKLLIYRASTLASGVPSRFKGSGSGTEYTLTFSGVECADAAAYYCQQGYTSSDINNAFGGGTEVVVK
PsV-based neutralization assay on 293FT cells: IC50, the antibody concentration required to block viral entry by 50% [1]: 0.4 ng/mL

B2: H16.001 Fab (Fab, V domains shown)
VH: B1 VH
VL: B1 VL
notes: also called Fab H16.001; H16.001 Fabs
stoichiometry N [2]: 360 Fabs per capsid
